One protein from article PMC7608815 can be followed below.

Substrate in data set [1]: COC(=O)c1cccc(O)c1N
Kind of data set: purified protein. It is filed as biochemical, Solanum lycopersicum. To be noted: 200 or 500 uM p-coumaroyl-CoA, 30 C, aminoacylation (amide synthesis).

Substrate in data set [2]: CC(C)(COP(=O)(O)OP(=O)(O)OC[C@H]1O[C@@H](n2cnc3c(N)ncnc32)[C@H](O)[C@@H]1OP(=O)(O)O)[C@@H](O)C(=O)NCCC(=O)NCCSC(=O)CC(=O)O
As to the kind of experiment: purified protein. To be noted: 200 uM p-coumaroyl-CoA, 30 C, 120 nM enzyme.

B1: SlCHS (Solanum lycopersicum) (protein)
chain: MVTVEEYRKAQRAEGPATILAIGTSTPSNCVDQSTYPDYYFRITNSEHKTELKEKFKRMCDKSMIKKRYMHLTEEILKENPNMCAYMAPSLDARQDIVVVEVPKLGKRGTQKAIKEWGQPKSKITHLVFCTTSGVDMPACDYQLAKLLPVRPSVKRLMMYQQGCFAGGTVLRLAKDLAENNKGARVLVVCSEITAVTFRGPSESHLDSLVGQALFGDGAAAIIIGSDPIIGVERPLFELVSAAQTLVPDSEGAIDGHLREVGLTFHLLKDVPGLISKNIEKSLLEAFQPLGISDWNSLFWIAHPGGPAILDQVELKLGLKPEKLRATREVLSNYGNMSSACVLFILDEMRKASTKEGLGTTGEGLEWGVLFGFGPGLTVETVVLHSVAA
In general, Km refers to the concentration of substrate that gives half-maximal velocity. One may read the kcat as the maximal rate divided by the concentration of active sites. Turning to B1, the values for the Km in “purified protein [1]” and in the data set “purified protein [2]” were 3060 µM and 21.34 µM, respectively. The kcat in the data set “purified protein [1]” was determined as 0.00603 s⁻¹; in “purified protein [2]” it was 0.00157 s⁻¹.
